# In patent publication US20230330253A1 (LANOVA MEDICINES, published 2023):
# Positions count from the first letter of the chain named. Names may count otherwise.
# B1: 4F11E2 HC N55Q-LC S32A (humanized, PTM de-risked, No. 2) (antibody, V domains shown)
# VH: EVQLVESGGGLVQPGGSLRLSCAASGFTFSTFGMHWVRQAPGKGLEWVSYITSGQSPIYFTDTVKGRFTISRDNAKNSLYLQMNSLRAEDTAVYYCARSSYYGNSMDYWGQGTLVTVSS
# VL: DIVMTQSPDSLAVSLGERATINCRSSQSLLNAGNRKNYLTWYQQKPGQPPKLLIYWASTRESGVPDRFSGSGSGTDFTLTISSLQAEDVAVYYCQNAYSYPFTFGGGTKLEIK
# B2: 120B7B2 HC G57D&S104A-LC S32A&G97A (BG2001-E) (humanized, PTM de-risked, No. 7) (antibody, V domains shown)
# VH: QVQLVQSGAEVKKPGASVKVSCKASGYTFTGYIIQWVRQAPGQRLEWMGFINPYNDDTKYNEQFKGRVTITRDTSASTAYMELSSLRSEDTAVYYCARAYFGNAFAYWGQGTLVTVSS
# VL: B1 VL with R24K, R35Q, S99Y, Y100F
# B3: 72C1B6A3 HC WT-LC S32A (BG2001-D) (humanized, PTM de-risked, No. 5) (antibody, V domains shown)
# VH: QVQLVQSGAEVKKPGASVKVSCKASGYTFTTYPIEWVRQAPGQRLEWMGNFHPYNDDTKYNEKFKGRVTITRDTSASTAYMELSSLRSEDTAVYYCARRAYGYPYAMDYWGQGTLVTVSS
# VL: B1 VL with R24K, R35Q, W56R, T59S, A97D, S99I, F102Y
# B4: 4F11E2 HC N55E-LC S32A (BG2001-C) (humanized, PTM de-risked, No. 3) (antibody, V domains shown)
# VH: B1 VH with Q55E
# VL: B1 VL
# B5: 72C1B6A3 HC WT-LC N31E (humanized, PTM de-risked, No. 4) (antibody, V domains shown)
# VH: B3 VH
# VL: B1 VL with R24K, N31E, A32S, R35Q, W56R, T59S, A97D, S99I, F102Y
# B6: 4F11E2 HC N55Q-LC N31E (humanized, PTM de-risked, No. 1) (antibody, V domains shown)
# VH: B1 VH
# VL: B1 VL with N31E, A32S
# B7: 120B7B2 HC G57D&S104A-LC-N96E&N31E (humanized, PTM de-risked, No. 6) (antibody, V domains shown)
# VH: B2 VH
# VL: B1 VL with R24K, N31E, A32S, R35Q, N96E, A97G, S99Y, Y100F
# B8: 85H12E8 chimeric antibody (antibody, V domains shown)
# VH: QVQLKESGPGLVAPSQSLSITCTVSGFSLSNYGVSWVRQPPGKGLEWLGVIWAGGNTNYNSALMSRLRISKDNSKSQVFLKMNSLQTDDTARYYCARHGYGKGNAMDNWGQGTSVTVSS
# VL: DIVMTQSPSSLTVTAGEKVTMNCKSSQSLLNSGNQRNYLSWYQQEPGQPPKLLIYWASTRESGVPDRFTGSGSGTDFTLTISNIQAEDLALYFCQNAYFYPFTFGSGTKLEIK
# B9: 100F4G12 chimeric antibody (antibody, V domains shown)
# VH: EVQLQQSGPELVKPGASVKMSCKASGYTFTGFLMHWVKQKPGQGLEWIGYINPYNDGTKYSERFKGKATLTSDKSSSTAYMELSSLTSDDSAVYYCARLDYGNAMDYWGQGTSVTVSS
# VL: DIVMTQSPSSLTVTAGEKVTMRCKSTQSLLNSGNQRNYLTWYQQKPGQSPKLLIYWASTRESGVPERFTGSGSGTDFTLTISSVQAEDLAVYYCQNAYYYPLTFGPGTKLERK
# B10: 12F1F4 chimeric antibody (antibody, V domains shown)
# VH: QVQLKESGPGLVAPSQSLSITCTVSGFSLINYGVSWVRQPPGKGLEWLGVIWGDGNTNYQSALRSRLSIRKDTSKSQVFLKLNSVHTDGTATYYCAKVGRGNAMDHWGQGISVIVSS
# VL: DIVMTQSPSSLTVTARERVSMTCKSSQSLFNSGNQRNYLTWYQQKPGQPPKLLIYWSSTRESGVPDRFTGSGSGTDFTLTISSVQAEDLAIYFCQNNYYYPFTFGSGTKLEIK
# B11: 78E8G9G6 chimeric antibody (antibody, V domains shown)
# VH: QVQLKESGPGLVAPSQSLSITCTVSGFSLISYGVHWVRQPPGKGLEWLGVIWAGGRTNYNSALMSRLSISKDNSKSQVFLKMNSLQTYDTAMYYCARDRYGGNSLDYWGQGTSVTVSS
# VL: DIVMTQSPSSLTVTAGEKVTMNCRSIQSLLNSGNQKNYLSWYQQKPGQPPKLLIYWASTRESGVPDRFTGSGSGTDFTLTIRSVLDEDLAVYYCQNSYSYPFTFGSGTKLEMK
# B12: 64G11B4 chimeric antibody (antibody, V domains shown)
# VH: QVQLHQSGTELVRPGTSVKVSCKASGYAFTNYLLEWVKQRPGQGLEWIGEINPGNGGSNYNEKFKGKATLTADKSSSTAYMQLSSLTSVDSAVYFCARIYYGNSFAYWGQGTLVTVSA
# VL: DIVMTQSPSSLTVTAGEKVTMNCKSSQSLLNSGNQRNYLTWYQQKPGQPPKLLIYWASTRESGVPDRFTGSGSGTDFTLTISSVQADDLAVYYCQNDYFYPFTFGAGTNLELK
# B13: 111B12D11 chimeric antibody (antibody, V domains shown)
# VH: QVQLKESGPGLVAPSQSLSITCTVSGFSLTSYGVHWVRQPPGKGLEWLGVIWAGGSTNYDSTLMSRLSISKDRSKSQVFLKMTSLQTDDTAMYYCARSLYGNSFDHWGQGTTLTVSS
# VL: B12 VL with N22R, K24R, L30F, D87E, D97N, F99I, F102L, T103A, N109K
# B14: 111E7E2 chimeric antibody (antibody, V domains shown)
# VH: B13 VH with V34A, T62A
# VL: B12 VL with N22S, L30F, R36K, D87E, D97N, F99I, F102L, T103A, N109K
# B15: 103H2B4 chimeric antibody (antibody, V domains shown)
# VH: QVQLQQPGAEPVKPGASVKLSCKASGYSFTNFLTHWVRQRPGQGLEWIGEINPTNGRTYYNEKFKRKATLTVDKSSTTVYMQLSNLTPEDSAVFYCARIYYGNSMDYWGQGTLVTVSA
# VL: B12 VL with V3L, N22S, R36K, P49S, D87E, D97N, F102L, A106V, N109K
# B16: 103F6D3 chimeric antibody (antibody, V domains shown)
# VH: QVQLQQSGAELARPGASVKMSCKASGYTFPTYSIHWLKQGPGQGLEWIGYINPNTIYTNYNQKFKYKTTLTADKSSSTAYIQLSSLTSDDSAVYYCAREGYGRGNAMDYWGQGTSVTVSS
# VL: DIVMTQSPSSQTVTAGEKVTLSCRSSQSLLNGGNQKNYLTWYQQKPGQPPKLLIYWASTRESGVPDRFTGSGSGTYFTFTISSVQAEDLAVYYCQNAYFYPFTFGAGTKLELK
# B17: 113E12F7 chimeric antibody (antibody, V domains shown)
# VH: B13 VH with S25T, T30S, T62A
# VL: DIVMTQSPSSLTVTTGEKVTMSCKSSQSLFNSGNQKNYLTWYQQKPGQPPKLLIYWASTRESGVPDRFTGSGSGTYFTLTISSVQAEDLAVYYCQNNYIYPLAFGTGTKLELK
# B18: 120B7B2 chimeric antibody (antibody, V domains shown)
# VH: EVQLQQSGPELVKPGASVKMSCKASGYTFTGYIIQWMKQKPGLGLEWIGFINPYNDGTKYNEQFKGKATLTSDKSSNAAYMELSSLTSEDSAVYYCARAYFGNSFAYWGQGTLVTVSA
# VL: DIVMTQSPSSLTVTAGEKVTMSCKSSQSLLNSGNQKNYLTWYQQRPGQPPKLLMYWASTRESGVPDRFTGSGSGTDFTLTISSGQAEDLAIYFCQNGYYFPFTFGSGTKLETK
# B19: 4F11E2 chimeric antibody (antibody, V domains shown)
# VH: DVQLVESGGGLVQPGGSRKLSCAASGFTFSTFGMHWVRQAPEKGLEWVAYITSGNSPIYFTDTVKGRFTISRDNPKNTLFLQMTSLGSEDTAVYYCARSSYYGNSMDYWGQGTSVTVSS
# VL: B16 VL with Q11L, S22T, G32S, Q35R, K45I, F79L, F99S, A106S, L112K
# B20: 72C1B6A3 chimeric antibody (antibody, V domains shown)
# VH: QVQLQQSGGELVKPGASVKMSCKAFGYTFTTYPIEWMKQNHGKSLEWIGNFHPYNDDTKYNEKFKGKAKLTVEKSSSTVYLEVSRLTSDDSAVYYCARRAYGYPYAMDYWGQGTSVTVSS
# VL: DIVMTQSPSSLTVTAGEKVTMSCKSSQSLLNSGNQKNYLTWYQQRPGQPPKLLIYRASSRESGVPVRFTGSGSGTDFTLTISSVQAEDLAVYYCQNDYIYPYTFGGGTKLEMN
# Biological target: human claudin 18.2 (CLDN18.2) (human)
# Assay: cell-based or functional assay
row,Binder,"EC50, ADCC Reporter Bioassay (luciferase) [nM]"
1,B1,0.414
2,B2,0.114
3,B3,0.191
4,B4,0.148
5,B5,1.65
6,B6,0.238
7,B7,0.493

# Biological target: human claudin 18.2 (CLDN18.2) (human)
# Assay: cell-based or functional assay
# Remark: another data set of the same source
Binder,"Fluorescence, pHAb internalization on MKN45-CLDN18.2 cells, 20 nM antibody, normalized by DAR","Fluorescence, pHAb internalization on MKN45-CLDN18.2 cells, 100 nM antibody, normalized by DAR"
B8,19700,29100
B9,17100,33500
B10,29500,43900
B2,19200,31300
B3,26200,36500
B4,19000,28200
B11,26800,41100
B12,24000,33700
B13,15900,37400
B14,12300,28000
B15,23500,35800
B16,23000,41300
B17,13200,29900

# Biological target: human claudin 18.2 (CLDN18.2) (human)
# Assay: cell-based or functional assay
# Remark: another data set of the same source
row,Binder,"EC50, ADCC Reporter Bioassay (luciferase, Jurkat FcγRIIIa V158/NFAT effector cells) [nM]"
1,B10,0.0368
2,B11,0.0159
3,B12,0.126
4,B18,0.00581
5,B19,0.0222
6,B16,0.0795
7,B20,0.0463
